Laboratory results: patent publication US6900177
Non-standard residues stand in square brackets, D forms with d. No end group written: not given here.

Target: T1, lecithin:cholesterol acyltransferase (LCAT), purified from human plasma (human, UniProt P04180 25-440)
T1 sequence (looked up): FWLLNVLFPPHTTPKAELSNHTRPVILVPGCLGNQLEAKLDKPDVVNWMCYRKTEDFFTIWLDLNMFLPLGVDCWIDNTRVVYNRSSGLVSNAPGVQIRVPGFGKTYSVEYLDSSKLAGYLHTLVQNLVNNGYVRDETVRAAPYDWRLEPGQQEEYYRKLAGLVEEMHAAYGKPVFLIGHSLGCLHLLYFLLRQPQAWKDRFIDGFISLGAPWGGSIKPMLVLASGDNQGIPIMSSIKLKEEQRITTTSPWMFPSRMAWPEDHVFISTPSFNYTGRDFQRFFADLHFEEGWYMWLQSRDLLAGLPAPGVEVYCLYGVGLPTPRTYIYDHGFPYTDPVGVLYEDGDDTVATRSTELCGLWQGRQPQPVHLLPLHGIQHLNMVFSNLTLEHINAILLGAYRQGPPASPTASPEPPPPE
Experiment: cell-based or functional assay

ACTIVITY (%) LCAT: 22%
Binder: [dP][dV]LDLFRELLNELLEALKQKLK [peptide 48]
